Protein production data for ten sequences are collected here from a protein production outcome set (Wang et al. 2014).

The series is described as follows: label from the status in PepcDB records.

In the case of “MLINSEIISLSGSMYEDRSYQNEAIDFIASKLANYPGVALEAPTGSGKTMMALLGSLKYAYNGHLKILYLVRTNSQEEQVIRELRTISKNRKIRALPMQGRINLCILYKTADDLKEATAESLSKFCNSRKRQVMEGHQEACPYYTIKVRSKETKDFLFENLPTAEEFYEYAFTNNLCPYESIKASLSDADIVVAPYMYFLNKTVADRFLSHWGVSREQLIIVLDEAHNLPDIGRSLGSFRISIESLNRSEKEAQSFGDPELDRGVHVTDFIEMIRSTLERTIKERVKEDDVRIRFQEFKEYLMIMNKKSEKSIRDLNNYLYLFGEYVENEKEKAGKVPVSYCSSLAQRLEAMMDEDDAMYAAILSKSESGYIQASCLDPSSILSSLKESKTIHMSGTLEPFEFYSDVTGFDIPFRRIENVFPIENRFVSYYEGVSTKYDTLDENEIRKLASIIENIVNGVKRNTIVYFPSYAVMDKVIGSGLDFDFLQEKKNLDQTEFYDVVKKFRNGGKPLLAVSGGRLSEGMNFPGRELELILIAGIPFPRPDATNRALYDYYEMKYKKGWEYAVLAPAIIKIRQEIGRLIRGKDDHGACVILDKRAKQFRRFIPDLVKTDDPVNDINTFFSNFK”, the protein production entry is “failed”.
With “MLIYEGHIDKLIRRGQEKGLDIFNLIRAAVINPVEHYGLNVGLLREGDPADFITVDDLKSFNVLSTFIDGECVYENGKVLFPMKLEHHHHHH”, the protein production entry is listed as “not failed”.
With “MLIYNLAIHSYLGCDSLALLPKANTLSKEKNINNADDTIKDQILASIDSFIYTKDLSGKYTYANQAVLDLFEKNLADVIGFDDTHFFDLALSKQLKANDRMVMDQVIRIENEESNFIRAKNETRIFKVVKKPLFDHLGNVNGICGISTDITVEKQLQEQVNEQSYLLETMLNNIDAHIYVKDCERTFLYVNNRVAELFGDKAENIIGKKDTDILPKEIAEHFYQSDKQVFETNQKQVIEETTHGENGDNCHYISTKVPFDRPDKLPALIGFSTDVTELFKLKEEFKLLANTDPLTNLYNRRFFIEQAEKEYQRAKRYSLSMTLISIDIDHFKSINDQFGHPAGDQVLIEIAKQLKASLRQTDILARIGGEEFSILLPETSAMSAMTFAERIKEEQSRLIITGDWQGEINLSVSIGVSSLIASDKAFDVLFSRADKALYQAKNTGRNTVCYL”, the protein production entry is “failed”.
As for “MLKELFVNLTILITFNYLFTHLFKERLVHKKDSISFQAVKGLACGLLGVILMVFGFTYQHSIIDLRNIPIMIAALYGGWVSTATALAMITAGRLLITMNTSALYSVIIICIAAIPSLIVSRRKKVQLKHAFYLLIITNSLISFSFYFLIDLHSYELHLYFWIISIAGGMLSLYIIDHETNAHLLFKQYKFQAHFDFLTGVYNRRKFEETTKALYQQAADTPHFQFALIYMDIDHFKTINDQYGHHEGDQVLKELGLRLKQTIRNTDPAARIGGEEFAVLLPNCSLDKAARIAERIRSTVSDAPIVLTNGDELSVTISLGAAHYPNNTEQPGSLPILADQMLYKAKETGRNRVCFSEKKE”, the entry is “failed”; as for “MLKIYVVDNGGQWTHREWRVLRELGVDTKIVPNDIDSSELDGLDGLVLSGGAPNIDEELDKLGSVGKYIDDHNYPILGICVGAQFIALHFGASVVKAKHPEFGKTKVSVMHSENIFGGLPSEITVWENHNDEIINLPDDFTLAASSATCQVQGFYHKTRPIYATQFHPEVEHTQYGRDIFRNFIGICASYREIQKENFQH”, “not failed”; as for “MLKKITCYTVLYIFILLNQPIQAQTYVIPDANFKNYLALNIPYVLNSNQELIISNAKIFTGTINCVGMNIEDLSGLQYFYKLTQLNCNSNQLTFLPSLDSLKQLQHMWVYNNKLTSIPSVNQLTNLQTLNVKNNQLTNLPSLTGMTALKSLDCSSNKLTALPDLSTLLNLEEMYCYINFITNIPSVSNLLHLKIFNIENNAIALLPDISQNTKLEILQFDLNQIETIPPLTTLTALKQLIFAHNKISTLPDLSANTALFIITGDNNQLTHIPDLSGFDNLTHVELSHNQLTFEDILPSSKHPQFSTVFNIQPQDSLNVNQPVSAVKGSTITLPLQFDLAVSGSTYNWYKNNIYLSSTTIPVLTLSNITEMNAGRYTCIITNNTSRLTGITLHARSYSILVEPCIKFSYINYEITANDCSKGAAIQIDHTQISALNTPLTYALHPLNNQSSITSASAVLNDVMPGRYSLTISDVNNCSVELQNYIFIPVPAGCMDSFTPNGDGLEDTYLIDKPGYTKIYNKNGTLIRTLNTPAAWDGSDESGKLCPMGYYIIIIDGKEKTGVVLIN”, “failed”.
As for “MLKLAQAEEAEAKRGKLKIFLGYAAGVGKTYAMLQAARERRHEGRDVVAAYVESHGRPETDALLEGLEILPAARIEYQGVMLPELDIDGVLARRPQLALVDELAHTNAPGSRHEKRWQDVEELLAAGIDVFTTVNVQHFESLNDVVAQITGIAVRETVPDRLLDLAAEIRLVDIPPEDLLQRLREGKVYVPEQAAFAAEKFFRAGNLIALRELSLRRAAVRVDEEMRAYMEARAIPGPWPAAERLLVSISGSPFSERLIRTTRRLADELKAPWFTVYVETPGNGRHEQENRKRVWKDLRLAESLGAQVATVTATSVAEALIDYARRHNVTRIVVGKPAKPRWREFLRLPLVDRIIRLSGAIDVHVVSYEPAEAGKGPVLPVRRGPISFSGYLASLALVVAASLACLLLRPFLAPTNMVMIYLLAVVLAALRLGLKPAILTAFLGVLAFDFFFIPPHLTFAVADTQYLITFVALFTVGVVISTLVSTVRERAEAVREREEQTASLYYLSRDLAAAADIETLVAAVIRNIGETLFARAAVLLPEGDRLRVAAASKGLKPDVKEMAVADWAFRNRQTAGQGTETLASAGFLYLPLQTSGSVLGVLGVRLKNDADYRSTQVRRMLDAFTSQTAMALERVQLSRQAEQAQILQARENLERALLNSISHDLRTPLVAITGALDTLRDKVHTLADESRLELLDTAWEEAERLNRFVGNLLDMTRLESGAIKLKRELSDVQDLIGCALAALERRIGERGIDVRLAPDLPLVRIDMVLMTQVLVNLLDNALKYSPPDSGVEITARVDGGRLRIEMADRGPGIPEQDLKRVFDKFYRIAVPEGAQGTGLGLSICKGIVEAHGGSIRAENRTGGGLRVIVTLPLAGGAKEGVSHGP”, the entry is “failed”; as for “MLKNLRIRKFEPEEEYVHFTYSIKNSEREKSKELIKEYRTLLQKAIDYLWNLTKIQVRKKNGSYKITLPKKKEVYKPLREELEKINHLASHYVDKAINDAFSILKSWRKRAIKGRASIEKPTLKKAYVRIKTTLRKVVGESVRITVRPYEYITFSWSKSWFSRRVRELELGEPIIKEEKVYLPFRYKLPWVTPVNFLAIDSNLYTLDAYDGEKFVTISLKQLYSLKYSMEVKRAKVQSFASKHTKRGRELMRKYSHRERNRVLDFVHKFVNTLLDLYPMTFFAVEKLNKESMFKDANGSLSRKISRTVWRSIHRVLKYKAPLYGSFVKEVNPHLTSRSCPRCGFVSRKVGKTFECERCGFKLDRQLNASLNIYLKMCGFPHIRDIPRVWVGVIPLMGRRGMNVRDFGEAQGLRIDIKYHEILLEHHHHHH”, “failed”.
Take “MLKNLRLKSFQPEEEYVHFTYSIKNDKREESKELIKEYTTLLQKAIDYLWSLTKIQVRKNGNYKITLPKKKEVYKPLRDELEKINHLASHYVDKAINDAFSILKSWRKRAIKGRASIEKPRVKKAYVRIKTTLRKVVGESVRITVRPYEYITFSWSKSWFSRRVRELELGEPIIKEEKVYLPFRYKLPWATPLNFLAIDSNLYTLDAYDGEKFVTISLKQLYSLKYSMEVKRAKVQSFASKHTKRGRELLRKYSHRERNRVLDFVHKFVNALLDLYPMTFFAVEKLNKESMFVDANDSLSRKISRTVWRSIHRVLKYKAPLYGSFVKEVNPRFTSRSCPRCGFVSRKVGKTFECERCGFKLDRQLNASLNIYLKMCGFPHIRDIARVWVGVIPLMGRRGMNGFPRDFGEAQGLRIDIKYHEIP”: the protein production entry is reported as “failed”.
Take “MLKPMYYEFFFIFPKERELFESFLLDATHLALEESSLENLKAFDDKETIGFISQSNWHYFATHDPLKKDLKENLKEKPPHLKNFVILRSQKDLNNSLIPALEAFCLNLKQNLQSEFDFFYLSRNLASKDWLEAYKQAILPVQCTKFYIHPSWHQKPSHVVTNDCIMIDPALAFGSGHHESTSMCLELLSDIDLKRKNALDVGCGSGILSIALKKQGVSALVACDTDSLAVEETLKNFSLNQIPLLVQDKVIYGSTQKIEGRFDVIVANLVADVIKSLYSEFVRLCNHTLILSGILETHLNSVLQIYYNGFEVLEQRQRNEWVALKLLKKQPIN”: the protein production entry was “failed”.
